Measured values reported in patent US20080286815A1, “SPECTROPHOTOMETRIC ASSAY FOR HUMAN HISTONE DEACETYLASE 8” (THE UNIVERSITY OF AKRON, priority 2007, published 2008).

Substrate: CSCC[C@H](NC(=O)[C@H](CC(C)C)NC(=O)[C@H](CCCC/N=C(/C)S)NC(=O)[C@H](CCCCN)NC(=O)[C@H](Cc1c[nH]cn1)NC(=O)[C@H](CCCN=C(N)N)NC(=O)[C@H](CO)NC(=O)[C@@H](NC(=O)[C@H](CO)NC(=O)[C@H](CCC(N)=O)NC(=O)CNC(=O)[C@H](CCCCN)NC(=O)[C@@H](N)CCCCN)[C@@H](C)O)C(=O)N[C@@H](Cc1ccccc1)C(=O)N[C@@H](CCCCN)C(=O)N[C@H](C(=O)N[C@@H](CCC(=O)O)C(=O)NCC(=O)O)[C@@H](C)O
Test: DTNB-based enzymatic assay with purified HDAC8
Format: biochemical, human
Settings: other: peptide as in vitro HDAC8 substrate, 375 nM HDAC8, room temperature, 1 hour, pH 6.8
Procedure: DTNB-based enzymatic assay. The DTNB data shown in FIG. 4 was generated using the following procedure. A second portion (300 µL) of the above HDAC8 assay mixture was quenched with 600 µL of the stop solution: 3.2 M guanidinium chloride in 100 mM of sodium phosphate (pH 6.8), and was analyzed by the DTNB-based assay procedure according to the invention, i.e. 60 min after the quench and DTNB (100 µL) addition, A412 was recorded for each sample derived at different time points of the same assay reaction. Again, the same assay protocol was used when the HeLa nuclear extracts were used instead of human HDAC8. To measure the kinetic parameters for the thioacetyl-lysine p53 peptide as an in vitro HDAC8 substrate, all the assay reactions contained 375 nM of HDAC8, a range of substrate concentrations varied around the Km value, and were allowed to proceed at room temperature for 1 hour before quenching. Reaction velocities were determined under initial condition (substrate turnover <10%). This experiment was performed twice, and each duplicate measurement agreed within 20%. By using a non-linear least squares approach with the computer program Kaleidagraph (Reading, Pa., USA), kinetic parameters (kcat and Km) were derived from the Michaelis-Menten plot based on the experimental data.
Assay with purified HDAC8. […]

B1: human HDAC8 (Homo sapiens) (protein)
chain: MEEPEEPADSGQSLVPVYIYSPEYVSMCDSLAKIPKRASMVHSLIEAYALHKQMRIVKPKVASMEEMATFHTDAYLQHLQKVSQEGDDDHPDSIEYGLGYDCPATEGIFDYAAAIGGATITAAQCLIDGMCKVAINWSGGWHHAKKDEASGFCYLNDAVLGILRLRRKFERILYVDLDLHHGDGVEDAFSFTSKVMTVSLHKFSPGFFPGTGDVSDVGLGKGRYYSVNVPIQDGIQDEKYYQICESVLKEVYQAFNPKAVVLQLGADTIAGDPMCSFNMTPVGIGKCLKYILQWQLATLILGGGGYNLANTARCWTYLTGVILGKTLSSEIPDHEFFTAYGPDYVLEITPSCRPDRNEPHRIQQILNYIKGNLKHVV
B1 gave a Km of 33.7 ± 7.2 µM and a kcat of 0.00433 ± 0.00033 s⁻¹.
